The values that follow come from the RNAGym collection of RNA variant scans (doi:10.1073/pnas.2313332121).

Fewer inactive variants are shown than the library holds.

B1: TPR 5TU (parent)
chain: GGAUCUUCUCGAUCUAACAAAAAAGACAAAUCUGCCACAAAGCUUGAGAGCAUCUUCGGAUGCAGAGGCGGCAGCCUUCGGUGGCGCGAUAGCGCCAACGUUCUCAACUAUGACACGCAAAACGCGUGCUCCGUUGAAUGGAGUUUAUCAUG

The variants in the data set derive from B1. Put plainly: polymerase ribozyme fitness, log enrichment relative to wild type (log ratio); higher = more active; in vitro selection for triplet polymerase activity. Put shortly:
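For each subunit of a heterodimeric triplet polymerase ribozyme, a mutant library was built by PCR and transcribed, then taken through a single in vitro selection round in triplicate. Selection involved annealing to a biotinylated primer, the partner subunit and triplets, incubation frozen at −7 °C, gel excision of extended constructs, capture on streptavidin beads and RT-PCR. Genotypes were retained after Illumina sequencing of inputs and outputs only with ≥10 input reads and ≥1 read in each output. Fitness is defined as the logarithm of a genotype's enrichment relative to wild-type enrichment, using inverse-variance-weighted averages across replicates, with the logarithm taken to base 2.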
For the variant G74C A150C, the “polymerase ribozyme fitness (log ratio)” value was not above -4.2.

A73U C96U C108G G141A U146G: the “polymerase ribozyme fitness (log ratio)” value was not above -4.2.

Take C75U G86C A115U: the “polymerase ribozyme fitness (log ratio)” value is -2.41.

For C76G G140U U151G, the “polymerase ribozyme fitness (log ratio)” value was not above -4.2.

C72A C114A: the “polymerase ribozyme fitness (log ratio)” value was not above -4.2.

Consider C75A C103G, for which the “polymerase ribozyme fitness (log ratio)” value is not above -4.2.

In the case of C75U U78C G84A, the “polymerase ribozyme fitness (log ratio)” value was -1.65.

For C75U G84U U101C, the “polymerase ribozyme fitness (log ratio)” value was -1.45.

For the variant C72U U145A, the “polymerase ribozyme fitness (log ratio)” value was determined as 0.261.

Turning to C76A C129G G136A, the “polymerase ribozyme fitness (log ratio)” value was -3.95.

Take G71U G84U U101C G117U C123U: the “polymerase ribozyme fitness (log ratio)” value was -4.15.

Regarding C72G C96U C116U, the “polymerase ribozyme fitness (log ratio)” value is not above -4.2.

For the variant A73U A150G, the “polymerase ribozyme fitness (log ratio)” value is -2.68.

Consider C75G A97U, for which the “polymerase ribozyme fitness (log ratio)” value is not above -4.2.

With A73U C99A C103G C114U C123G, the “polymerase ribozyme fitness (log ratio)” value is not above -4.2.

With C72U G126U, the “polymerase ribozyme fitness (log ratio)” value is -0.101.

Consider C75A C87U, for which the “polymerase ribozyme fitness (log ratio)” value is -3.81.

For C72U C93U, the “polymerase ribozyme fitness (log ratio)” value was -0.741.

For the variant C75A U135C, the “polymerase ribozyme fitness (log ratio)” value is not above -4.2.

In the case of C75G G92U C103G A122C, the “polymerase ribozyme fitness (log ratio)” value was not above -4.2.

On to C75U C96G, for which the “polymerase ribozyme fitness (log ratio)” value stood at 0.716.

On to C75U C95G C96G, for which the “polymerase ribozyme fitness (log ratio)” value was -3.09.

Turning to C76A U104C, the “polymerase ribozyme fitness (log ratio)” value is -3.57.

In the case of A73U G80U, the “polymerase ribozyme fitness (log ratio)” value is -2.82.

A73G U145G: the “polymerase ribozyme fitness (log ratio)” value was -0.0134.

C75G C93U: the “polymerase ribozyme fitness (log ratio)” value was -3.74.

As to C76A G84A U134G, the “polymerase ribozyme fitness (log ratio)” value is -2.67.

In the case of C76A U145C, the “polymerase ribozyme fitness (log ratio)” value is -0.484.

As to G74A G141U, the “polymerase ribozyme fitness (log ratio)” value was -2.35.

C76A C103U U134A: the “polymerase ribozyme fitness (log ratio)” value is -4.15.

Consider C72G G86C, for which the “polymerase ribozyme fitness (log ratio)” value was not above -4.2.

Take A73G C76U C93A C99A U145A: the “polymerase ribozyme fitness (log ratio)” value was not above -4.2.

As to C75U A91G, the “polymerase ribozyme fitness (log ratio)” value is -3.07.

With C76A G128C, the “polymerase ribozyme fitness (log ratio)” value was -3.67.

On to C75A G80C C105G, for which the “polymerase ribozyme fitness (log ratio)” value is not above -4.2.

Regarding A73U C75G G88C, the “polymerase ribozyme fitness (log ratio)” value was not above -4.2.

Turning to C76A G86U, the “polymerase ribozyme fitness (log ratio)” value is -1.75.

On to C76A G83U A106G, for which the “polymerase ribozyme fitness (log ratio)” value is -3.45.

For the variant G74A U77A G92U G112U G124A, the “polymerase ribozyme fitness (log ratio)” value is not above -4.2.

Regarding C75U C85A, the “polymerase ribozyme fitness (log ratio)” value is -1.84.

Turning to C75U C85U, the “polymerase ribozyme fitness (log ratio)” value was found to be 0.543.

On to C75G G88A U146G, for which the “polymerase ribozyme fitness (log ratio)” value was not above -4.2.

For the variant C76A C85A A138G U145C, the “polymerase ribozyme fitness (log ratio)” value was not above -4.2.

For the variant C76A G92A U134C, the “polymerase ribozyme fitness (log ratio)” value was -3.62.

For A73U G81U A106G A115G A119U A147C, the “polymerase ribozyme fitness (log ratio)” value was not above -4.2.

On to A73G A89U, for which the “polymerase ribozyme fitness (log ratio)” value is -0.161.

C75G C85U C87A A113G: the “polymerase ribozyme fitness (log ratio)” value is not above -4.2.

In the case of G74C A97U C132A G141A G143C, the “polymerase ribozyme fitness (log ratio)” value is not above -4.2.

Consider A73U C96G, for which the “polymerase ribozyme fitness (log ratio)” value was -1.8.

In the case of C72A G140U, the “polymerase ribozyme fitness (log ratio)” value is not above -4.2.

On to G74U C85G C99A A107U C125A, for which the “polymerase ribozyme fitness (log ratio)” value is not above -4.2.

Turning to C76G G88C, the “polymerase ribozyme fitness (log ratio)” value is not above -4.2.

With G71U G92U G136A, the “polymerase ribozyme fitness (log ratio)” value is -2.26.

As to C76A C96U U145G, the “polymerase ribozyme fitness (log ratio)” value is -0.785.

Turning to C76G G84A A122G, the “polymerase ribozyme fitness (log ratio)” value was not above -4.2.

As to C75A G86U, the “polymerase ribozyme fitness (log ratio)” value is not above -4.2.

With A73U G84A U144C, the “polymerase ribozyme fitness (log ratio)” value was -1.83.

Consider C75U G94C A122G U145A, for which the “polymerase ribozyme fitness (log ratio)” value was -3.35.

For C76A C93A, the “polymerase ribozyme fitness (log ratio)” value was -3.88.

Turning to C75U C85U U111G A121U G152A, the “polymerase ribozyme fitness (log ratio)” value was not above -4.2.

Consider C75G U77A A91G A106U U134G, for which the “polymerase ribozyme fitness (log ratio)” value was not above -4.2.

Consider A73U C85U G117U, for which the “polymerase ribozyme fitness (log ratio)” value is -0.841.

Take C72A C85A: the “polymerase ribozyme fitness (log ratio)” value is -3.85.

With C72U G126U C132A, the “polymerase ribozyme fitness (log ratio)” value is -4.12.

A73G A106C U111A U144A: the “polymerase ribozyme fitness (log ratio)” value is not above -4.2.

With C76A U82A C85G A106G A107U C108G C129A, the “polymerase ribozyme fitness (log ratio)” value was not above -4.2.

Regarding G71U U144G, the “polymerase ribozyme fitness (log ratio)” value is -1.84.

As for G71U G84A, the “polymerase ribozyme fitness (log ratio)” value is -2.59.

As for A73U C76A U77A G94C U104G A106G C108U, the “polymerase ribozyme fitness (log ratio)” value was not above -4.2.

Turning to A73G U77C G88C, the “polymerase ribozyme fitness (log ratio)” value is not above -4.2.

With C76A C96G, the “polymerase ribozyme fitness (log ratio)” value was -1.51.

Take A73G C96U A119U: the “polymerase ribozyme fitness (log ratio)” value is -0.341.

For C75A C95G C96U, the “polymerase ribozyme fitness (log ratio)” value was not above -4.2.

With C75U C93U G143U, the “polymerase ribozyme fitness (log ratio)” value is -3.61.

In the case of C75U G88A A119U, the “polymerase ribozyme fitness (log ratio)” value is not above -4.2.

As for A73C G94A C95U U102C G126C G141U, the “polymerase ribozyme fitness (log ratio)” value was not above -4.2.

Regarding C76G C87G U90A A121C A122U, the “polymerase ribozyme fitness (log ratio)” value was not above -4.2.

As to C76A G152A, the “polymerase ribozyme fitness (log ratio)” value is -2.86.

With C75U G92U C93G, the “polymerase ribozyme fitness (log ratio)” value was -1.13.

For C75U U139A G140C, the “polymerase ribozyme fitness (log ratio)” value was -4.11.

As to G74A, the “polymerase ribozyme fitness (log ratio)” value was -2.81.

G74U: the “polymerase ribozyme fitness (log ratio)” value is -3.33.

Take G74C: the “polymerase ribozyme fitness (log ratio)” value is -3.96.
